2 substances from PMC2900185 (Biochemistry, 2010) can be followed below.

In test [1] the target is Ste2p (R58A) (S. cerevisiae) (UniProt D6VTK4).
Test [2] deals with Ste2p containing the substitution R58A. Briefly: Binding of α-factor to Ste2p with substitution R58A. Also on record: species or system Saccharomyces cerevisiae.

Chain of UniProt D6VTK4 (D6VTK4 whole entry R58A): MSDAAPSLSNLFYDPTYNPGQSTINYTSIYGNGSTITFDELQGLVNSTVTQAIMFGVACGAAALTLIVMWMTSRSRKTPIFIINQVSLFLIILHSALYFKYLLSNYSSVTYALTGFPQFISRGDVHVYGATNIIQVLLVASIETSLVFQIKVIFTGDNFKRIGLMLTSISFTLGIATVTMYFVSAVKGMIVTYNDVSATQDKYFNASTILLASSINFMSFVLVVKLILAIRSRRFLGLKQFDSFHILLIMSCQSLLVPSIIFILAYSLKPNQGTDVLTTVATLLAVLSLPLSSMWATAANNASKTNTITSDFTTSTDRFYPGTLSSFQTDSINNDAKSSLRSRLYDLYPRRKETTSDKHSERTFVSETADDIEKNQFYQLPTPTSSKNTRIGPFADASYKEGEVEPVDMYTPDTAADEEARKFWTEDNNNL

Regarding “α-factor (as used with the ste2 R58 mutants) (peptide)”, in test [1], the fold higher Kd than wild-type Ste2p worked out at 10 fold.
With WHWLQLKPGQPMY [α-factor], the “fold lower affinity for α-factor relative to wild-type Ste2p” value in test [2] is approximately 10 fold.
